According to PMC7046147, “Impaired DNA-binding affinity of novel PAX6 mutations”:

Experiments:
Test in all cases: ITC; ITC (iTC200) at 25 °C in buffer C (composition not given; protein stored in 25 mM Hepes pH 7.5, 150 mM NaCl, 5 mM b-ME); 20 uM protein in cell, 200 uM DNA in syringe, one-site model
PAX6 PD G64V = PAX6 PD G64V (human, UniProt P26367 4-136, G64V); conditions: protein: recombinant
PAX6 PD G72S = PAX6 PD G72S (human, UniProt P26367 4-136, G72S); conditions: protein: recombinant
PAX6 PD G72C = PAX6 PD G72C (human, UniProt P26367 4-136, G72C); conditions: protein: recombinant, tags: N-terminal His6 removed by TEV
PAX6 PD P76R = PAX6 PD P76R (human, UniProt P26367 4-136, P76R); conditions: protein: recombinant; 5' overhang 2 nt on each strand (AA/TT), 24 bp
PAX6 PD G73D = PAX6 PD G73D (human, UniProt P26367 4-136, G73D); conditions: protein: recombinant
PAX6 paired domain WT = PAX6 paired domain WT (human, UniProt P26367 4-136); conditions: protein: recombinant, tags: N-terminal His6 removed by TEV
PAX6 PD S74G = PAX6 PD S74G (human, UniProt P26367 4-136, S74G); conditions: protein: recombinant
[1] = 5' overhang 2 nt on each strand (AA/TT), 24 bp

PAX6 PD G64V, sequence (P26367 4-136 G64V): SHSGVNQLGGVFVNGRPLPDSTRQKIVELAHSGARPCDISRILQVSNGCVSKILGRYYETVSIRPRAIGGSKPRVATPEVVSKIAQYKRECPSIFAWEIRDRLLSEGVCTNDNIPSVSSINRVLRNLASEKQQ
PAX6 PD G73D, sequence (P26367 4-136 G73D): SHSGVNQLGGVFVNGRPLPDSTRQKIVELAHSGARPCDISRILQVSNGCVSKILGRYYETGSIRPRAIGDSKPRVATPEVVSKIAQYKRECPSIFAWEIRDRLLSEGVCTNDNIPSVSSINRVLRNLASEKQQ
PAX6 PD G72S, sequence (P26367 4-136 G72S): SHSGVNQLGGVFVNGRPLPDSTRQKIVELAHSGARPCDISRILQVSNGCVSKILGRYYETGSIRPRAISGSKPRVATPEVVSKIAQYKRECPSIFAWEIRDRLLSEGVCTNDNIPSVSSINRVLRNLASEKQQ
PAX6 paired domain WT, sequence (P26367 4-136): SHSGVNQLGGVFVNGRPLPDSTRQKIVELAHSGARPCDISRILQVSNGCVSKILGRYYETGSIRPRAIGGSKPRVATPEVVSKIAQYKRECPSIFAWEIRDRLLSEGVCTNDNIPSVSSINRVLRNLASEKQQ
PAX6 PD G72C, sequence (P26367 4-136 G72C): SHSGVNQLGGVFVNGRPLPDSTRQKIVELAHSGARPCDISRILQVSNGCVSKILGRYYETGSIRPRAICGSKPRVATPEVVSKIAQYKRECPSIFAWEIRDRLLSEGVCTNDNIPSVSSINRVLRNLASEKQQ
PAX6 PD S74G, sequence (P26367 4-136 S74G): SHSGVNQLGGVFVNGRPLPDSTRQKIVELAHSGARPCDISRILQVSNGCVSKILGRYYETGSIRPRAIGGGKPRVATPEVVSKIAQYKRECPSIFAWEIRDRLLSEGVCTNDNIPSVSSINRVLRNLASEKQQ
PAX6 PD P76R, sequence (P26367 4-136 P76R): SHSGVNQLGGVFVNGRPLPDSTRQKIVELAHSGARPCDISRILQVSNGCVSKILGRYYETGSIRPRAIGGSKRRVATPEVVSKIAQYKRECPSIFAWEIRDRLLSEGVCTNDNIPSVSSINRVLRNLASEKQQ

B1: P6B (dsDNA)
DNA 1: AAGCATTTTCACGCATGAGTGCACAG
DNA 2: TTCTGTGCACTCATGCGTGAAAATGC
Kd (PAX6 PD G64V; [1]): 2520 ± 1020 nM | Kd (PAX6 PD G72S; [1]): 1200 ± 130 nM | Kd (PAX6 PD G72C; [1]): 579 ± 370 nM | Kd (PAX6 PD P76R): 740 ± 93 nM | Kd (PAX6 PD G73D; [1]): 489 ± 128 nM | Kd (PAX6 paired domain WT; [1]): 411 ± 68 nM | Kd (PAX6 PD S74G; [1]): 699 ± 180 nM

B2: CD19 A-ins (dsDNA)
DNA 1: GAATGGGGCACTGAGGCGTGACCACCGC
DNA 2: GCGGTGGTCACGCCTCAGTGCCCCATTC
Kd (PAX6 PD G64V; blunt): 2170 ± 162 nM | Kd (PAX6 PD G72S; blunt): 980 ± 43 nM | Kd (PAX6 PD G72C; blunt): 5020 ± 360 nM | binding result (PAX6 PD G73D; blunt): no binding | Kd (PAX6 paired domain WT; blunt): 952 ± 78 nM | Kd (PAX6 PD S74G; blunt): 943 ± 31 nM

B3: P6CON (dsDNA)
DNA 1: AAATTTTCACGCTTGAGTTCACAGCT
DNA 2: AGCTGTGAACTCAAGCGTGAAAATTT
Kd (PAX6 PD G64V; blunt): 1290 ± 78 nM | Kd (PAX6 PD G72S; blunt): 943 ± 37 nM | Kd (PAX6 PD G72C; blunt): 1410 ± 110 nM | Kd (PAX6 PD G73D; blunt): 961 ± 48 nM | Kd (PAX6 paired domain WT; blunt): 925 ± 47 nM | Kd (PAX6 PD S74G; blunt): 1040 ± 45 nM
